In patent publication US20150307627A1 (BAC IP B V, published 2015):
Each block holds one binder with its values, some of them ahead of it.

How the values were obtained:
Human IgG [1] = molecular target: T1, Human IgG; assay: affinity chromatography, VHH on NHS-Sepharose, 150 cm/h
T1 construct: also called HuIgG; human IgG-Fc domains
Protocol: The dynamic binding capacity (DBC) of the IgG-Fc domain binding VHH fragments immobilized onto NHS sepharose was tested. 10 ml of 1.0 mg/ml human IgG in PBS pH 7.4 was loaded on a 400 μl column with a linear flow of 150 cm/h. After the washing with 10 column volumes PBS pH 7.4, the column was eluted with 0.1 M glycine buffer pH 3.0. Based on integration of the OD280 signal of the flow through and elution peak, the dynamic binding capacity of the column was calculated (Table 11).

HuIgG1 [2] = molecular target: T2, HuIgG1 (human, UniProt P01857-1 1-330 = IgG part); assay: SPR, VHH immobilised, 1:1 Langmuir fit
T2 construct: Purified human IgG of subclass 1; also called Human-IgG1
Protocol: (§1) Binding affinity constants of anti IgG-Fc VHH fragments were determined using surface plasmon resonance analysis (SPR) on a BiaCore 3000. For this purpose, purified VHH fragments were immobilised onto the surface of a CM5 sensor chip and subsequently incubated with different concentrations of purified IgG antibodies in HBS-EP buffer. Binding was allowed for 3 minutes at 30 μl/min followed by a dissociation step of 15 minutes at 30 μl/min Binding curves were fitted according to a 1:1 Langmuir binding model using Biacore software.

Human IgG [3] = molecular target: T1, Human IgG; assay: SPR, VHH immobilised, 1:1 Langmuir fit
Protocol: as §1

HuIgG3 [4] = molecular target: T3, HuIgG3 (human, UniProt P01860-1 1-377); assay: SPR, VHH immobilised, 1:1 Langmuir fit
T3 construct: Purified human IgG of subclass 3; also called Human-IgG3
Protocol: as §1

HuIgG4 [5] = molecular target: T4, HuIgG4 (human, UniProt P01861-1 1-327 = IgG part); assay: SPR, VHH immobilised, 1:1 Langmuir fit
T4 construct: Purified human IgG of subclass 4; also called Human-IgG4
Protocol: as §1

HuIgG2 [6] = molecular target: T5, HuIgG2 (human, UniProt P01859-1 1-326 = IgG part); assay: SPR, VHH immobilised, 1:1 Langmuir fit
T5 construct: Purified human IgG of subclass 2; also called Human-IgG2
Protocol: as §1

Human IgG [7] = molecular target: T1, Human IgG; assay: method not given
Protocol: as §1

Newborn Calf IgG = assay: SPR, VHH immobilised, IgG 50 µg/ml
Protocol: (§2) Broad binding reactivity of VHH fragment IgG-Fc-16 was determined using surface plasmon resonance analysis (SPR) on a BiaCore 3000. For this purpose, purified VHH fragment IgG-Fc-16 was immobilised onto the surface of a CM5 sensor chip and subsequently incubated with purified IgG antibodies (50 μg/ml) from different species in HBS-EP buffer. Binding was allowed for 1 minute at 5 μl/min followed by a dissociation step of 2.5 minutes at 5 μl/min. Binding signals (Resonance Units) were compared to background signals measured with HBS-EP buffer only. For comparison, the relative reactivity of Protein A and G towards different IgG species is also given.

Cat IgG = molecular target: T6, Cat IgG; assay: SPR, VHH immobilised, IgG 50 µg/ml
T6 construct: also called IgG-Fc from cat
Protocol: as §2

HuIgG1 [8] = molecular target: T2, HuIgG1; assay: SPR, VHH immobilised, IgG 50 µg/ml
Protocol: as §2

Bovine IgG [9] = molecular target: T7, Bovine IgG; assay: SPR, VHH immobilised, IgG 50 µg/ml
T7 construct: also called IgG-Fc from bovine
Protocol: as §2

Rat IgG2b = Rat IgG2b (rat, UniProt P20761 1-333); assay: SPR, VHH immobilised, IgG 50 µg/ml
Protocol: as §2

Goat IgG = molecular target: T8, Goat IgG; assay: SPR, VHH immobilised, IgG 50 µg/ml
T8 construct: also called IgG-Fc from goat
Protocol: as §2

Bovine IgG, Fab fragment = assay: SPR, VHH immobilised, IgG 50 µg/ml
Protocol: as §2

Rat IgG2a = Rat IgG2a (rat, UniProt P20760 1-322); assay: SPR, VHH immobilised, IgG 50 µg/ml
Protocol: as §2

Bovine IgG, Fc fragment = assay: SPR, VHH immobilised, IgG 50 µg/ml
Protocol: as §2

Guinea pig IgG = molecular target: T9, Guinea pig IgG; assay: SPR, VHH immobilised, IgG 50 µg/ml
T9 construct: also called Guinea IgG; IgG-Fc from guinea pig
Protocol: as §2

Rat IgG1a = assay: SPR, VHH immobilised, IgG 50 µg/ml
Protocol: as §2

Swine IgG = assay: SPR, VHH immobilised, IgG 50 µg/ml
Protocol: as §2

Mouse IgG2a = Mouse IgG2a (mouse, UniProt P01863 1-330 = IgG part); assay: SPR, VHH immobilised, IgG 50 µg/ml
Protocol: as §2

Rat IgG = molecular target: T10, Rat IgG; assay: SPR, VHH immobilised, IgG 50 µg/ml
T10 construct: also called IgG-Fc from rat
Protocol: as §2

Rabbit IgG = assay: SPR, VHH immobilised, IgG 50 µg/ml
Protocol: as §2

Human IgG [10] = molecular target: T1, Human IgG; assay: SPR, VHH immobilised, IgG 50 µg/ml
Protocol: as §2

Foetal Calf IgG = assay: SPR, VHH immobilised, IgG 50 µg/ml
Protocol: as §2

HuIgG3 [11] = molecular target: T3, HuIgG3; assay: SPR, VHH immobilised, IgG 50 µg/ml
Protocol: as §2

HuIgG4 [12] = molecular target: T4, HuIgG4; assay: SPR, VHH immobilised, IgG 50 µg/ml
Protocol: as §2

Donkey IgG = assay: SPR, VHH immobilised, IgG 50 µg/ml
Protocol: as §2

Rat IgG2c = Rat IgG2c (rat, UniProt P20762 1-329); assay: SPR, VHH immobilised, IgG 50 µg/ml
Protocol: as §2

Mouse IgG 1 = Mouse IgG 1 (mouse, UniProt P01868 1-324 = IgG part); assay: SPR, VHH immobilised, IgG 50 µg/ml
Protocol: as §2

Syrian Hamster IgG = molecular target: T11, Syrian Hamster IgG; assay: SPR, VHH immobilised, IgG 50 µg/ml
T11 construct: also called IgG-Fc from syrian hamster
Protocol: as §2

Dog IgG = molecular target: T12, Dog IgG; assay: SPR, VHH immobilised, IgG 50 µg/ml
T12 construct: also called IgG-Fc from dog
Protocol: as §2

Horse IgG = assay: SPR, VHH immobilised, IgG 50 µg/ml
Protocol: as §2

Human IgG, Fab fragment = assay: SPR, VHH immobilised, IgG 50 µg/ml
Protocol: as §2

Mouse IgG [13] = molecular target: T13, Mouse IgG; assay: SPR, VHH immobilised, IgG 50 µg/ml
T13 construct: also called IgG-Fc from mouse
Protocol: as §2

HuIgG2 [14] = molecular target: T5, HuIgG2; assay: SPR, VHH immobilised, IgG 50 µg/ml
Protocol: as §2

Human IgG, Fc fragment = assay: SPR, VHH immobilised, IgG 50 µg/ml
Protocol: as §2

Sheep IgG = molecular target: T14, Sheep IgG; assay: SPR, VHH immobilised, IgG 50 µg/ml
T14 construct: also called IgG-Fc from sheep
Protocol: as §2

Bovine IgG [15] = molecular target: T7, Bovine IgG; assay: SPR, VHH immobilised, 1:1 Langmuir fit
Protocol: as §1

Mouse IgG [16] = molecular target: T13, Mouse IgG; assay: SPR, VHH immobilised, 1:1 Langmuir fit
Protocol: as §1

T4 sequence (P01861 other isoform, or with tags, fused parts or gaps): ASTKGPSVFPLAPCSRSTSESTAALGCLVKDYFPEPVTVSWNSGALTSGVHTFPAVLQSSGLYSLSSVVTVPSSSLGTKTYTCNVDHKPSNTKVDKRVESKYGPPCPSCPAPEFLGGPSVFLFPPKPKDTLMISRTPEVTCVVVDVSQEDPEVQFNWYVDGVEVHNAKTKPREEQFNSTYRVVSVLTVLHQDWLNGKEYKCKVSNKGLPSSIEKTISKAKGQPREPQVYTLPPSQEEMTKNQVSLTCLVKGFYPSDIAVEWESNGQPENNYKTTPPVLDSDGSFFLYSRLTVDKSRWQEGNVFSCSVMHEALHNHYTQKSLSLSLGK
T2 sequence (P01857 other isoform, or with tags, fused parts or gaps): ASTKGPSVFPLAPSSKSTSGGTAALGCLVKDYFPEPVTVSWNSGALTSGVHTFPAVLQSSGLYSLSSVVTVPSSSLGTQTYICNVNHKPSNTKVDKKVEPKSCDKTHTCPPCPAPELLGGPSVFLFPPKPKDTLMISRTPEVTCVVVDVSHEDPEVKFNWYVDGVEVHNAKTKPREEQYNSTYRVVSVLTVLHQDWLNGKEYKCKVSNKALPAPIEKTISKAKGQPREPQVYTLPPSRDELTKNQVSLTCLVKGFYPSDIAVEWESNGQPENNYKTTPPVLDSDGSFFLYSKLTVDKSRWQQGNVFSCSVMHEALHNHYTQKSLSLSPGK
T3 sequence (P01860 other isoform, or with tags, fused parts or gaps): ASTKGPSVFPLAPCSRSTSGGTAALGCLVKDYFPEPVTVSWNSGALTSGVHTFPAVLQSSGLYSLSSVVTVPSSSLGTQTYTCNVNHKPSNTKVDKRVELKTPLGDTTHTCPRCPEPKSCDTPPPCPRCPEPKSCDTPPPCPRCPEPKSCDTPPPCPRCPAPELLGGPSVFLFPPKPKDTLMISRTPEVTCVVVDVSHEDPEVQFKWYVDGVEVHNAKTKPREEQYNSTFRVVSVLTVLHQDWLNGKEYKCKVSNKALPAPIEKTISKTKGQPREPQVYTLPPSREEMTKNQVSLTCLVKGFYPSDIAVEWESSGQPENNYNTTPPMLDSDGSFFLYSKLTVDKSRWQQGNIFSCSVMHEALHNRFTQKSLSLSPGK
T5 sequence (P01859 other isoform, or with tags, fused parts or gaps): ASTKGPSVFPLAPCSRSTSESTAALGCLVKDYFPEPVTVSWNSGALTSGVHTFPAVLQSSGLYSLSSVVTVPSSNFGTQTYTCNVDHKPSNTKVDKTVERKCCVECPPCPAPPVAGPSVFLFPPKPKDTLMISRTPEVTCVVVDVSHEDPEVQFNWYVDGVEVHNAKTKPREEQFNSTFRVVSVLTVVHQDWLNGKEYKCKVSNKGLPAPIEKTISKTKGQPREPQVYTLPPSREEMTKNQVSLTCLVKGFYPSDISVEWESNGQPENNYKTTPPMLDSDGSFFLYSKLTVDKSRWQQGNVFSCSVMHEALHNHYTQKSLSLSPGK
Chain of Mouse IgG2a (P01863 whole entry): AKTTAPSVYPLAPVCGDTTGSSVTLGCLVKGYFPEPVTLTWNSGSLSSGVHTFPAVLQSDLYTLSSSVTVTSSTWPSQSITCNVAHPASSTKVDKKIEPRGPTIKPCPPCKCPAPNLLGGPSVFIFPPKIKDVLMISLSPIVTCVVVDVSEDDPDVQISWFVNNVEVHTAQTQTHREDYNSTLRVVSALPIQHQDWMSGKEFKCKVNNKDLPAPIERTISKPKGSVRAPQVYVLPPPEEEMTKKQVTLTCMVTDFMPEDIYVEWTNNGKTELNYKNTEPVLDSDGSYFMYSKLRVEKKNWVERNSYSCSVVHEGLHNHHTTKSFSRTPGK
Chain of Rat IgG2c (P20762 whole entry): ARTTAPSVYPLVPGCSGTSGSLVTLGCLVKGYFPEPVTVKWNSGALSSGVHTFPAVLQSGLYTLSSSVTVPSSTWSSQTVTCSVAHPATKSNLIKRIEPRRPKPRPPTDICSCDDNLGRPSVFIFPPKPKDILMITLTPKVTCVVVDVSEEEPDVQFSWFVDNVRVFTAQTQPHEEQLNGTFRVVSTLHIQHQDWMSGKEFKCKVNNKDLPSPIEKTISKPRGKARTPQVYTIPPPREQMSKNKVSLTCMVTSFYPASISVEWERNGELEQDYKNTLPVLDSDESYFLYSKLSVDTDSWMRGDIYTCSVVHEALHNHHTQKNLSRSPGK
Chain of Rat IgG2a (P20760 whole entry): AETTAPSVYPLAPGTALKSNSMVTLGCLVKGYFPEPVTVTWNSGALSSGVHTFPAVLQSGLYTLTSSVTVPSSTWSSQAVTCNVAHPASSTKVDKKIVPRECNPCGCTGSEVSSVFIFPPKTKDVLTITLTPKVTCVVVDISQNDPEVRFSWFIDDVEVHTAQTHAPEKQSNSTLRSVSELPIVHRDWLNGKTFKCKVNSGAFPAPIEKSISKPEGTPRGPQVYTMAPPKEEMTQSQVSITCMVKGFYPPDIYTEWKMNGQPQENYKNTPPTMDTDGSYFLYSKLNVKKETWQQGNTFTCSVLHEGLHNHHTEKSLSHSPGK
Chain of Rat IgG2b (P20761 whole entry): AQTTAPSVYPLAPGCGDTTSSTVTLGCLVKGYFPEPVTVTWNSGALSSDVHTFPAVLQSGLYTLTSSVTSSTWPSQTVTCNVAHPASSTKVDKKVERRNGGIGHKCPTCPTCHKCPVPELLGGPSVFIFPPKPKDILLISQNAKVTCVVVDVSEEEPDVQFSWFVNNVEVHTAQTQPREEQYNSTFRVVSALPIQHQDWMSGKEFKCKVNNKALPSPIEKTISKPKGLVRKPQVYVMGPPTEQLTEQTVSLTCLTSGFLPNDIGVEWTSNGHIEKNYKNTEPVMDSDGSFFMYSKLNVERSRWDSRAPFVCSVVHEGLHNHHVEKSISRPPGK

Dynamic binding capacity (Human IgG [1]): 16.7 mg human IgG/ml matrix
Ka (HuIgG1 [2]): 3.81e+08 M⁻¹
Kd (HuIgG1 [2]): 2.62 nM
koff (HuIgG1 [2]): 0.000654 s⁻¹
kon (HuIgG1 [2]): 249000 M⁻¹ s⁻¹
Ka (Human IgG [3]): 3.07e+08 M⁻¹
Kd (Human IgG [3]): 3.25 nM
koff (Human IgG [3]): 0.00129 s⁻¹
kon (Human IgG [3]): 396000 M⁻¹ s⁻¹
Ka (HuIgG3 [4]): 1.11e+08 M⁻¹
Kd (HuIgG3 [4]): 8.99 nM
koff (HuIgG3 [4]): 0.0014 s⁻¹
kon (HuIgG3 [4]): 156000 M⁻¹ s⁻¹
Ka (HuIgG4 [5]): 8.16e+07 M⁻¹
Kd (HuIgG4 [5]): 12.3 nM
koff (HuIgG4 [5]): 0.00123 s⁻¹
kon (HuIgG4 [5]): 100000 M⁻¹ s⁻¹
Ka (HuIgG2 [6]): 1.37e+08 M⁻¹
Kd (HuIgG2 [6]): 7.29 nM
koff (HuIgG2 [6]): 0.000889 s⁻¹
kon (HuIgG2 [6]): 122000 M⁻¹ s⁻¹
Ka (Human IgG [7]): ≥ 4e+09 M⁻¹
B1: IgG-Fc-10 (VHH)
VHH: QVQLQESGGGLVQAGDSLRISCRASGLTVNDLYMGWFRQAPGKEREFVGRVTPGDNTDYTYYVDSVKGRFTISRDSAKNTVYLQMNSLKLEDTAVYLCAGRRFGSSEWDYWGQGTQVTVSS

Dynamic binding capacity (Human IgG [1]): 11.5 mg human IgG/ml matrix
Binding signal (RU) (Newborn Calf IgG): 239 RU
Binding signal (RU) (Cat IgG): 410 RU
Binding signal (RU) (HuIgG1 [8]): 1570 RU
Binding signal (RU) (Bovine IgG [9]): 309 RU
Binding signal (RU) (Rat IgG2b): 512 RU
Binding signal (RU) (Goat IgG): 257 RU
Binding signal (RU) (Bovine IgG, Fab fragment): -1.7 RU
Binding signal (RU) (Rat IgG2a): 444 RU
Binding signal (RU) (Bovine IgG, Fc fragment): 172 RU
Binding signal (RU) (Guinea pig IgG): 577 RU
Binding signal (RU) (Rat IgG1a): 431 RU
Binding signal (RU) (Swine IgG): 811 RU
Binding signal (RU) (Mouse IgG2a): 427 RU
Binding signal (RU) (Rat IgG): 108 RU
Binding signal (RU) (Rabbit IgG): 800 RU
Binding signal (RU) (Human IgG [10]): 1110 RU
Binding signal (RU) (Foetal Calf IgG): 260 RU
Binding signal (RU) (HuIgG3 [11]): 499 RU
Binding signal (RU) (HuIgG4 [12]): 710 RU
Binding signal (RU) (Donkey IgG): 638 RU
Binding signal (RU) (Rat IgG2c): 2130 RU
Binding signal (RU) (Mouse IgG 1): 1610 RU
Binding signal (RU) (Syrian Hamster IgG): 670 RU
Binding signal (RU) (Dog IgG): 490 RU
Binding signal (RU) (Horse IgG): 430 RU
Binding signal (RU) (Human IgG, Fab fragment): -2.8 RU
Binding signal (RU) (Mouse IgG [13]): 468 RU
Binding signal (RU) (HuIgG2 [14]): 795 RU
Binding signal (RU) (Human IgG, Fc fragment): 807 RU
Binding signal (RU) (Sheep IgG): 846 RU
Ka (HuIgG1 [2]): 1.47e+08 M⁻¹
Kd (HuIgG1 [2]): 6.81 nM
koff (HuIgG1 [2]): 0.000211 s⁻¹
kon (HuIgG1 [2]): 31000 M⁻¹ s⁻¹
Ka (Bovine IgG [15]): 3.59e+08 M⁻¹
Kd (Bovine IgG [15]): 2.79 nM
koff (Bovine IgG [15]): 0.000386 s⁻¹
kon (Bovine IgG [15]): 138000 M⁻¹ s⁻¹
Ka (Human IgG [3]): 7.65e+07 M⁻¹
Kd (Human IgG [3]): 13.1 nM
koff (Human IgG [3]): 0.000462 s⁻¹
kon (Human IgG [3]): 35300 M⁻¹ s⁻¹
Ka (HuIgG3 [4]): 4.69e+07 M⁻¹
Kd (HuIgG3 [4]): 21.3 nM
koff (HuIgG3 [4]): 0.000849 s⁻¹
kon (HuIgG3 [4]): 39800 M⁻¹ s⁻¹
Ka (HuIgG4 [5]): 5.89e+08 M⁻¹
Kd (HuIgG4 [5]): 1.7 nM
koff (HuIgG4 [5]): 0.000107 s⁻¹
kon (HuIgG4 [5]): 62900 M⁻¹ s⁻¹
Ka (Mouse IgG [16]): 1.19e+08 M⁻¹
Kd (Mouse IgG [16]): 8.41 nM
koff (Mouse IgG [16]): 0.000198 s⁻¹
kon (Mouse IgG [16]): 23500 M⁻¹ s⁻¹
Ka (HuIgG2 [6]): 6.17e+07 M⁻¹
Kd (HuIgG2 [6]): 16.2 nM
koff (HuIgG2 [6]): 0.000355 s⁻¹
kon (HuIgG2 [6]): 21900 M⁻¹ s⁻¹
B2: IgG-Fc-16 (VHH)
VHH: QVQLQESGGGLVQAGGSLRLSCAASGRAVGNYIIGWFRQAPGKEREFVATTTRDGGSTFYADSVKGRFTISRDNAKNTVNLQMNSLEPEDTAVYYCAAKSWSVPLRPTSADFDSWGQGTQVTVSS
notes: also called VHH fragment IgG-Fc-16

Dynamic binding capacity (Human IgG [1]): 18.2 mg human IgG/ml matrix
Ka (HuIgG1 [2]): 1.74e+09 M⁻¹
Kd (HuIgG1 [2]): 0.575 nM
koff (HuIgG1 [2]): 0.000208 s⁻¹
kon (HuIgG1 [2]): 361000 M⁻¹ s⁻¹
Ka (Human IgG [3]): 4.67e+08 M⁻¹
Kd (Human IgG [3]): 2.14 nM
koff (Human IgG [3]): 0.000176 s⁻¹
kon (Human IgG [3]): 82400 M⁻¹ s⁻¹
Ka (HuIgG3 [4]): 2.09e+07 M⁻¹
Kd (HuIgG3 [4]): 47.8 nM
koff (HuIgG3 [4]): 0.000272 s⁻¹
kon (HuIgG3 [4]): 5690 M⁻¹ s⁻¹
Ka (HuIgG4 [5]): 3.32e+09 M⁻¹
Kd (HuIgG4 [5]): 0.302 nM
koff (HuIgG4 [5]): 5.91e-05 s⁻¹
kon (HuIgG4 [5]): 196000 M⁻¹ s⁻¹
Ka (HuIgG2 [6]): 5.76e+08 M⁻¹
Kd (HuIgG2 [6]): 1.73 nM
koff (HuIgG2 [6]): 0.000212 s⁻¹
kon (HuIgG2 [6]): 122000 M⁻¹ s⁻¹
B3: IgG-Fc-01 (VHH)
VHH: QVQLQESGGGLVQPGGSLRLSCAASGGTSIRIGSINALAWYRQALGNQRELVAAVTEGGSTNYADFVKGRFTISRDNAQNMMYLQMNSLKPEDTAVYYCNADKVLYSRGGYYSVANDLWGQGTQVTVSS
notes: also called IgG-Fc-1
